Experiment [1] concerns the target GIRK1/2-CFP.
Experiment [2] addresses GIRK1/2-CFP. This is another data set of the same source.
Experiment [3] addresses GIRK1/2-CFP. Briefly: FRET or BRET; acceptor bleaching under TIRF illumination in living HEK293T cells co-transfected with receptor-YFP (or prestin-YFP) and GIRK1/2-CFP; G protein subunits not additionally transfected; absence or presence of oxo-M (10 uM).

For the substance “M1R-YFP (from UniProt P04761 1-460) (receptor)”, the agonist-induced GIRK channel current density (ΔImax), oxo-M 10 uM, tandem constructs M1R-YFP-34/100/265-GIRK1/2, PTX (-); decreased with the increase in the linker length in experiment [1] stood at 11.3 pA/pF. For the substance “M2R-YFP (from UniProt P06199 1-466) (receptor)”, in experiment [2], the agonist-induced GIRK channel current density (ΔImax), oxo-M 10 uM, tandem constructs M2R-YFP-100/265/535-GIRK1/2, PTX (-); not changed with the increases in the linker length amounted to 62 pA/pF.

As to “receptor-YFP with the long chain in the middle of M2R-i3 (K221-P379) replaced with SGGGS”, the FRET efficiency in experiment [3] was determined as 5.5%.

For the origin of these results see article PMC6150519.
